# Assay results taken from PMC8102337.
# No end group written: not given here.
# B1: HSP27 IXI peptide 178…186 (F185H), unmodified, without biotin (peptide)
# peptide: EITIPVTHE
# modifications: not fully specified
# What was measured:
# [1] = target: N-terminally biotinylated HSP27 IXI peptide 178…186 (F185H), unmodified (human); assay: SPR
# [2] = target: HSP27 alpha crystallin domain (ACD) (human); assay: ITC
Molecule,Kd [1] [µM],Kd [2] [µM]
HSP27 alpha crystallin domain (ACD) (domain or fragment),3.14,–
B1,–,14.3
